Data on 2 substances can be found in paper PMC2705190.

Test [1] has as its target HIV-1 integrase, wild type, full-length (HIV-1). Description: cross-linking; BS3 (2-0.2 mM), 3 µM IN or 1.5 µM each of two mutants, 0.75 M NaCl, 2 mM MgSO4, 25 µM ZnCl2, 25 mM Hepes-NaOH pH 7.5, 30 min at 18°C; SDS-PAGE, Sypro Orange.
Test [2] has the same target. Nature of the test: SEC; analytical SEC of IN alone (or an equimolar mixture of two mutants); Shodex KW403-4F column on ice, 750 mM NaCl, 10 mM MgCl2, 20 mM HEPES-NaOH pH 7.0; 35 µl IN at 0.6 mg/ml with 25 µM ZnCl2 and 2.8 mM CHAPS. For orientation: Size exclusion chromatography separates by hydrodynamic size, large species first.
For test [3] the target is unchanged. Description: SEC; analytical SEC as for IN alone, but 0.3 mg/ml LEDGF IBD pre-incubated with IN on ice for 5 min before injection; Shodex KW403-4F on ice, 750 mM NaCl, 10 mM MgCl2, 20 mM HEPES-NaOH pH 7.0.

The term stoichiometry N denotes a count of units in the complex or per binding partner. Turning to “HIV-1 integrase, wild type, full-length (enzyme)”, the stoichiometry N in test [1] and in test [2] was 4 each time.
Turning to “integrase binding domain of lens epithelium derived growth factor (LEDGF IBD) (from UniProt O75475 1-435) (domain or fragment)”, in test [3], the stoichiometry N (per IN tetramer) stood at 4.
